Data from the Human Domainome abundance scans (Beltran et al. 2025).
± gives the uncertainty stated by the source.

B1: Tumor protein 63, residues 545 to 610; numbered along this chain, Q9H3D4 (parent)
chain: TDCSIVSFLARLGCSSCLDYFTTQGLTTIYQIEHYSMDDLASLKIPEQFRHAIWKGILDHRQLHEF

Variants of: B1
Experiment: abundance fitness (aPCA) (normalised: wild type 0, dead -1); higher = more abundant; growth selection in yeast, the domain comes from the species named
Settings: Homo sapiens

Row | Variant | abundance fitness
1 | Y35N | -0.392 ± 0.032
2 | Y35F | -0.012 ± 0.038
3 | Y35P | -0.955 ± 0.15
4 | Y35S | -0.251 ± 0.023
5 | Y35D | -0.698 ± 0.088
6 | Y35W | 0.001 ± 0.024
7 | Y35I | -0.257 ± 0.061
8 | Y35T | -0.318 ± 0.028
9 | Y35H | -0.103 ± 0.034
10 | Y35Q | -0.394 ± 0.04
11 | Y35K | -0.147 ± 0.037
12 | Y35C | -0.099 ± 0.034
13 | Y35E | -0.706 ± 0.04
14 | Y35G | -0.635 ± 0.023
15 | Y35M | 0.03 ± 0.022
16 | Y35V | -0.118 ± 0.024
17 | Y35A | -0.131 ± 0.026
18 | A41Y | -0.103 ± 0.04
19 | A41P | -0.734 ± 0.062
20 | A41R | -0.039 ± 0.025
21 | A41I | 0.003 ± 0.041
22 | A41G | -0.043 ± 0.023
23 | A41T | -0.028 ± 0.032
24 | A41H | -0.081 ± 0.047

Row | Variant | abundance fitness
25 | A41W | -0.111 ± 0.025
26 | A41D | -0.035 ± 0.03
27 | A41N | -0.024 ± 0.091
28 | A41V | -0.002 ± 0.023
29 | A41M | -0.088 ± 0.06
30 | A41C | 0.012 ± 0.036
31 | A41L | -0.06 ± 0.027
32 | A41K | 0.008 ± 0.038
33 | A41F | -0.1 ± 0.034
34 | A41S | -0.04 ± 0.033
35 | A41E | -0.012 ± 0.028
36 | A41Q | -0.008 ± 0.033
37 | Y30G | 0 ± 0.027
38 | Y30R | 0.008 ± 0.024
39 | Y30H | 0.057 ± 0.044
40 | Y30D | 0.009 ± 0.044
41 | Y30M | -0.025 ± 0.043
42 | Y30K | 0.001 ± 0.019
43 | Y30L | -0.044 ± 0.02
44 | Y30Q | 0.029 ± 0.041
45 | Y30F | -0.112 ± 0.086
46 | Y30N | -0.046 ± 0.068
47 | Y30V | -0.034 ± 0.025
48 | Y30W | -0.06 ± 0.044

Row | Variant | abundance fitness
49 | Y30I | -0.049 ± 0.043
50 | Y30P | 0.007 ± 0.034
51 | Y30T | -0.001 ± 0.034
52 | Y30E | -0.016 ± 0.031
53 | Y30S | 0.038 ± 0.03
54 | Y30C | 0.005 ± 0.075
55 | S36Q | -0.049 ± 0.044
56 | S36Y | -0.311 ± 0.068
57 | S36E | -0.014 ± 0.036
58 | S36A | -0.062 ± 0.025
59 | S36G | -0.028 ± 0.018
60 | S36V | -0.09 ± 0.025
61 | S36W | -0.436 ± 0.05
62 | S36L | -0.177 ± 0.027
63 | S36R | -0.071 ± 0.024
64 | S36P | -0.608 ± 0.057
65 | S36N | 0.009 ± 0.055
66 | S36I | -0.188 ± 0.04
67 | S36T | -0.023 ± 0.044
68 | S36M | -0.096 ± 0.05
69 | S36F | -0.379 ± 0.04
70 | S36H | -0.13 ± 0.092
71 | H34A | -0.037 ± 0.024
72 | H34I | -0.372 ± 0.039

Row | Variant | abundance fitness
73 | H34T | -0.084 ± 0.031
74 | H34F | -0.102 ± 0.033
75 | H34Y | -0.08 ± 0.029
76 | H34V | -0.27 ± 0.027
77 | H34G | -0.014 ± 0.018
78 | H34W | -0.06 ± 0.025
79 | H34K | -0.018 ± 0.04
80 | H34L | -0.106 ± 0.023
81 | H34M | -0.044 ± 0.027
82 | H34N | 0.02 ± 0.029
83 | H34Q | -0.041 ± 0.032
84 | H34E | -0.007 ± 0.026
85 | H34P | -0.188 ± 0.026
86 | H34C | -0.141 ± 0.049
87 | H34S | -0.004 ± 0.025
88 | L26H | -0.225 ± 0.04
89 | L26Q | -0.345 ± 0.041
90 | L26C | -0.174 ± 0.025
91 | L26P | -0.692 ± 0.065
92 | L26I | -0.014 ± 0.028
93 | L26D | -0.552 ± 0.054
94 | L26N | -0.414 ± 0.041
95 | L26R | -0.436 ± 0.022
96 | L26G | -0.935 ± 0.064

Row | Variant | abundance fitness
97 | L26Y | -0.149 ± 0.05
98 | L26W | -0.435 ± 0.03
99 | L26T | -0.272 ± 0.025
100 | L26V | -0.054 ± 0.025
101 | L26F | -0.106 ± 0.055
102 | L26A | -0.271 ± 0.029
103 | L26M | -0.112 ± 0.032
104 | M37E | -0.014 ± 0.039
105 | M37Q | -0.07 ± 0.031
106 | M37T | -0.076 ± 0.029
107 | M37N | -0.132 ± 0.037
108 | M37D | -0.138 ± 0.039
109 | M37P | -0.014 ± 0.037
110 | M37A | -0.063 ± 0.025
111 | M37V | -0.011 ± 0.027
112 | M37C | -0.083 ± 0.039
113 | M37R | -0.037 ± 0.026
114 | M37F | -0.009 ± 0.072
115 | M37Y | -0.049 ± 0.05
116 | M37S | -0.083 ± 0.025
117 | M37W | -0.071 ± 0.044
118 | M37G | -0.215 ± 0.028
119 | D39Y | -0.437 ± 0.042
120 | D39K | -0.093 ± 0.031

Row | Variant | abundance fitness
121 | D39H | -0.163 ± 0.049
122 | D39W | -0.554 ± 0.03
123 | D39R | -0.171 ± 0.02
124 | D39F | -0.478 ± 0.037
125 | D39T | -0.124 ± 0.036
126 | D39V | -0.265 ± 0.032
127 | D39S | -0.143 ± 0.029
128 | D39Q | -0.032 ± 0.044
129 | D39A | -0.108 ± 0.03
130 | D39P | -0.864 ± 0.081
131 | D39E | -0.047 ± 0.048
132 | D39I | -0.449 ± 0.07
133 | D39L | -0.238 ± 0.025
134 | Q31I | -0.86 ± 0.045
135 | Q31D | -0.019 ± 0.035
136 | Q31P | -0.737 ± 0.044
137 | Q31N | -0.133 ± 0.02
138 | Q31A | -0.108 ± 0.031
139 | Q31C | -0.159 ± 0.033
140 | Q31S | -0.093 ± 0.021
141 | Q31L | -0.431 ± 0.034
142 | Q31W | -0.812 ± 0.12
143 | Q31H | -0.047 ± 0.028
144 | Q31K | -0.296 ± 0.064

Row | Variant | abundance fitness
145 | Q31R | -0.427 ± 0.038
146 | Q31V | -0.841 ± 0.051
147 | Q31G | -0.274 ± 0.031
148 | Q31E | -0.03 ± 0.051
149 | Q31Y | -0.721 ± 0.039
150 | Q31F | -0.695 ± 0.031
151 | T28D | -0.021 ± 0.036
152 | T28M | -0.038 ± 0.033
153 | T28C | -0.211 ± 0.028
154 | T28V | -0.1 ± 0.023
155 | T28A | -0.065 ± 0.027
156 | T28Q | -0.012 ± 0.029
157 | T28R | -0.051 ± 0.021
158 | T28L | -0.084 ± 0.019
159 | T28H | -0.056 ± 0.042
160 | T28N | -0.087 ± 0.04
161 | T28I | -0.192 ± 0.027
162 | T28Y | -0.056 ± 0.029
163 | T28P | -0.82 ± 0.055
164 | T28W | -0.04 ± 0.03
165 | T28K | -0.028 ± 0.033
166 | T28F | -0.063 ± 0.038
167 | T28G | -0.069 ± 0.024
